The labels stand for the following.
B1: Histone deacetylase 8, Q9BY41 (parent)
chain: MEEPEEPADSGQSLVPVYIYSPEYVSMCDSLAKIPKRASMVHSLIEAYALHKQMRIVKPKVASMEEMATFHTDAYLQHLQKVSQEGDDDHPDSIEYGLGYDCPATEGIFDYAAAIGGATITAAQCLIDGMCKVAINWSGGWHHAKKDEASGFCYLNDAVLGILRLRRKFERILYVDLDLHHGDGVEDAFSFTSKVMTVSLHKFSPGFFPGTGDVSDVGLGKGRYYSVNVPIQDGIQDEKYYQICESVLKEVYQAFNPKAVVLQLGADTIAGDPMCSFNMTPVGIGKCLKYILQWQLATLILGGGGYNLANTARCWTYLTGVILGKTLSSEIPDHEFFTAYGPDYVLEITPSCRPDRNEPHRIQQILNYIKGNLKHVV

Several values for one entry are separate records, joined by “and”; a condition that tells them apart may be missing. Identical values can stand only once.

Our source for the Tm values is FireProtDB (doi:10.1021/cb5003762).

As a reminder, the Tm is the temperature at the midpoint of the melting transition.

The series covers variants of B1. The note with it: Homo sapiens; pH 7.5; Thermal; fluorescence; Hepes 25 mM; KCl 150 mM; structure 2V5W; whole UniProt chain shown.
Regarding C153F, the Tm turned out to be 50.6 °C.
The same measure for A188T: 46.5 °C and 50.6 °C.
